Data: patent US20140179896A1 (published 2014)

Biological target: T1, human vascular endothelial growth factor receptor-2 Fc chimera (KDR-Fc) (human, UniProt P35968 20-764)
T1 construct: range 1-764; purchased from R&D Systems; also called hKDR; human VEGF-R2-Fc; not shown: human IgG1 Fc
Test: radioactive equilibrium binding, 1 nM KDR-Fc
Summary of the method: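 Percent of input bound is specific binding: total ³⁵S eluted from Protein A beads minus nonspecific bead binding without receptor. The binder (0.2 or 0.5 nM) was incubated with titrated VEGF-R2-Fc in buffer B, 30° C, 1 h.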

T1 sequence (P35968 20-764 limits assumed, change not shown, form in doubt): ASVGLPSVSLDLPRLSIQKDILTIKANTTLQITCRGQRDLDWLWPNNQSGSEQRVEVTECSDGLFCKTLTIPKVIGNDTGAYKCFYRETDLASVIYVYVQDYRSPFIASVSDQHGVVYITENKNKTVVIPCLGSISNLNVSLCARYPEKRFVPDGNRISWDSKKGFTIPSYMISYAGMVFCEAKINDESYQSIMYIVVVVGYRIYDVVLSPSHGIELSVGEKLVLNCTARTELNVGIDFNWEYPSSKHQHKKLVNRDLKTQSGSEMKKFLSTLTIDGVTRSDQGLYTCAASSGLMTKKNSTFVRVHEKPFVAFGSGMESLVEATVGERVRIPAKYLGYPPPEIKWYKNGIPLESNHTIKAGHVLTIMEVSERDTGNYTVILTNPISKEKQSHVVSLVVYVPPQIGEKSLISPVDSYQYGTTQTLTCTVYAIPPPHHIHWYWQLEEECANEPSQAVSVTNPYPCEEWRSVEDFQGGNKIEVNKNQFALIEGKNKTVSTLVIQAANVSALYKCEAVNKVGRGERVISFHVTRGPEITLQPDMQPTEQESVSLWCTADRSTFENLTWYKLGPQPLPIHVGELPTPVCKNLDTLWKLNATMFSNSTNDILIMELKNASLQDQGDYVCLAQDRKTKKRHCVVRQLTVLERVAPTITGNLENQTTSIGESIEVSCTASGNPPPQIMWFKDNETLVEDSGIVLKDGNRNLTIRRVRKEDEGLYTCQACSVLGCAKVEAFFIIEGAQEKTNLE

| Binder | Binding to 1 nM KDR, % |
| --- | --- |
| 4A12 PR3 (designed binder, tag left out) EVVAATPTSLLISWRHPHFPTRYYRITYGETGGNSPVQEFTVPLQPPTATISGLKPGVDYTITGYAVTVAQNDHELLTPISINYRT | 13% |
| 1′DelC4 PR4 (designed binder, tag left out) EVVAATPTSLLISWRHPHFPTRYYRITYGETGGNSPVQEFTVPLQPPTATISGLKPGVDYTITGYAVTVAQSNHELMTPISINYRT | 9% |
| 1′DelG9 PR4 (designed binder, tag left out) EVVAATPTSLLISWRHPHFPTRYYRITYGETGGNSPVQEFTVPLQPPTATISGLKPGVDYTITGYAVTVAQSDHELMTPISINYRT | 10% |
| 2′Del E12 PR4 (designed binder, tag left out) EVVAATPTSLLISWRHPHFPTRYYRITYGETGGNSPVQEFTVPLQPPTATISGLKPGVDYTITGYAVTEGPNGHELITPISINYRT | 13% |
| 1′DelC10 PR4 (designed binder, tag left out) EVVAATPTSLLISWRHPHFPTRYYRITYGETGGNSPVQEFTVPLQPPTATISGLKPGVDYTITGYAVTVAKNDHELITPISINYRT | 8% |
| 1′DelD3 PR4 (designed binder, tag left out) EVVAATPTSLLISWRHPHFPTRYYRITYGETGGNSPVQEFTVPLQPPTATISGLKPGVDYTITGYAVTLAQNNHELITPISINYRT | 12% |
| 1′DelE12 PR4 (designed binder, tag left out) EVVAATPTSLLISWRHPHFPTRYYRITYGETGGNSPVQEFTVPLQPPTATISGLKPGVDYTITGYAVTVAQSDHELFTPISINYRT | 13% |
| 1′DelH7 PR4 (designed binder, tag left out) EVVAATPTSLLISWRHPHFPTRYYRITYGETGGNSPVQEFTVPLQPPTATISGLKPGVDYTITGYAVTVGQNDQELLTPISINYRT | 11% |
| 2′Del F12 PR4 (designed binder, tag left out) EVVAATPTSLLISWRHPHFPTRYYRITYGETGGNSPVQEFTVPLQPPTATISGLKPGVDYTITGYAVTLTQHDHELLTPISINYRT | 7% |
| 1′DelH1 PR4 (designed binder, tag left out) EVVAATPTSLLISWRHPHFPTRYYRITYGETGGNSPVQEFTVPLQPPTATISGLKPGVDYTITGYAVTVAQNGHELITPISINYRT | 9% |
| 2′F7-PR4 (designed binder, tag left out) VSDVPRDLEVVAATPTSLLISWRHPHFPTRYYRITYGETGGNSPVQEFTVPLQPPTATISGLKPGVDYTITGYAVTLGLRDRELFVPISINYRT | 5% |
| 2′H5-PR4 (designed binder, tag left out) VSDVPRDLEVVAATPTSLLISWRHPHFPTRYYRITYGETGGNSPVQEFTVPLQPPTATISGLKPGVDYTITGYAVTLGKDVRELLTPISINYRT | 3% |

Further lines, results first:

| Binding to 1 nM KDR, % | Binder |
| --- | --- |
| 11% | 1′DelC5 PR4 (designed binder, tag left out) EVVAATPTSLLISWRHPHFPTRYYRITYGETGGNSPVQEFTVPLQPPTATISGLKPGVDYTITGYAVTLAQNDHEIMTPISINYRT |
| 13% | 1′DelA9 PR4 (designed binder, tag left out) EVVAATPTSLLISWRHPHFPTRYYRITYGETGGNSPVQEFTVPLQPPTATISGLKPGVDYTITGYAVTLAQNDHELMTPISINYRT |
| 13% | 1′DelC2 PR4 (designed binder, tag left out) EVVAATPTSLLISWRHPHFPTRYYRITYGETGGNSPVQEFTVPLQPPTATISGLKPGVDYTITGYAVTVDRNDHELFTPISINYRT |
| 11% | 1′DelG11 PR4 (designed binder, tag left out) EVVAATPTSLLISWRHPHFPTRYYRITYGETGGNSPVQEFTVPLQPPTATISGLKPGVDYTITGYAVTLAQNGHVLITPISINYRT |
| 11% | 2′DelB9 PR4 (designed binder, tag left out) EVVAATPTSLLISWRHPHFPTRYYRITYGETGGNSPVQEFTVPLQPPTATISGLKPGVDYTITGYAVTVGPTDHELLTPISINYRT |
| 8% | 1′DelB7 PR4 (designed binder, tag left out) EVVAATPTSLLISWRHPHFPTRYYRITYGETGGNSPVQEFTVPLQPPTATISGLKPGVDYTITGYAVTVAQNDHELKTPISINYRT |
| 12% | 1′DelC6 PR4 (designed binder, tag left out) EVVAATPTSLLISWRHPHFPTRYYRITYGETGGNSPVQEFTVPLQPPTATISGLKPGVDYTITGYAVTVAQNEHELLTPISINYRT |
| 6% | 1′DelH6 PR4 (designed binder, tag left out) EVVAATPTSLLISWRHPHFPTRYYRITYGETGGNSPVQEFTVPLQPPTATISGLKPGVDYTITGYAVTVGQYDHELITPISINYRT |
| 9% | 1′DelE11 PR4 (designed binder, tag left out) EVVAATPTSLLISWRHPHFPTRYYRITYGETGGNSPVQEFTVPLQPPTATISGLKPGVDYTITGYAVTVAQNDRELITPISINYRT |
| 11% | 1′DelB10 PR4 (designed binder, tag left out) EVVAATPTSLLISWRHPHFPTRYYRITYGETGGNSPVQEFTVPLQPPTATISGLKPGVDYTITGYAVTVARNDHELMTPISINYRT |
| 11% | 2′DelB10 PR4 (designed binder, tag left out) EVVAATPTSLLISWRHPHFPTRYYRITYGETGGNSPVQEFTVPLQPPTATISGLKPGVDYTITGYAVTVTHNDHELLTPISINYRT |
| 10% | 1′DelH9 PR4 (designed binder, tag left out) EVVAATPTSLLISWRHPHFPTRYYRITYGETGGNSPVQEFTVPLQPPTATISGLKPGVDYTITGYAVTVGQNDHELITPISINYRT |
| 7% | 2′B9-PR4 (designed binder, tag left out) VSDVPRDLEVVAATPTSLLISWRHPHFPTRYYRITYGETGGNSPVQEFTVPLQPPTATISGLKPGVDYTITGYAVTVGPTDHELLTPISINYRT |
| 12% | 2′G11-PR4 (designed binder, tag left out) VSDVPRDLEVVAATPTSLLISWRHPHFPTRYYRITYGETGGNSPVQEFTVPLQPPTATISGLKPGVDYTITGYAVTGGQMNRVLMTPISINYRT |
| 5% | 2′C7-PR4 (designed binder, tag left out) VSDVPRDLEVVAATPTSLLISWRHPHFPTRYYRITYGETGGNSPVQEFTVPLQPPTATISGLKPGVDYTITGYAVTWDQNGHVLLTPISINYRT |
| 11% | 2′D5-PR4 (designed binder, tag left out) VSDVPRDLEVVAATPTSLLISWRHPHFPTRYYRITYGETGGNSPVQEFTVPLQPPTATISGLKPGVDYTITGYAVTVAWNDHMLMTPISINYRT |
| 4% | 2′F6-PR4 (designed binder, tag left out) VSDVPRDLEVVAATPTSLLISWRHPHFPTRYYRITYGETGGNSPVQEFTVPLQPPTATISGLKPGVDYTITGYAVTLGWNDHELYIPISINYRT |
